Reference: patent US20240272170A1 (QUANTUM SI, published 2024)

Assays:
[1] = molecular target: T1, QP1165 after cleavage to N-terminal leucine (LKQRVWK); experiment: on-chip dynamic sequencing of QP1165, PS2123 run, trace Aperture=1168773
T1 peptide: LKQRVWK

[2] = molecular target: T2, QP1165 after cleavage to N-terminal isoleucine (IAFLKQRVWK); experiment: as above
T2 peptide: IAFLKQRVWK

[3] = molecular target: T1, QP1165 after cleavage to N-terminal …; experiment: on-chip dynamic sequencing of QP1165, PS1875 run, trace Aperture=1377116
Method: The semiconductor chip was placed in the sequencing device and a chip check was performed to test electronic circuit function and to optimize laser coupling alignment. The chip was then removed from the device socket and the chip was washed twice with 50 μL of 70% isopropanol, followed by four washes with 30 μL of wash buffer (50 mM MOPS pH 8.0, 60 mM potassium acetate, 50 mM glucose, 20 mM magnesium acetate, and surfactant mix) through a flow cell attached to the chip. A second chip check was then performed. The laser was then blocked via an integrated software-controlled shutter, peptide complex was added to a final concentration of 1-10 nM and mixed thoroughly, and the chip was incubated for 15 min. The chip was then washed six times with wash buffer, followed by addition of an imaging solution (wash buffer with 5 mM Trolox and an oxygen scavenging system). The laser was unblocked and the occupancy percentage (target 10-30%, Poisson distributed) was recorded by acquiring a photobleaching signal from a fluorophore attached to the peptide complex during 5 min of laser illumination. […] Data was recorded for 15 min. The laser was then blocked briefly and aminopeptidases were added to the sequencing reaction via the flow cell and mixed thoroughly (final concentration 2-8 μM PhTET2 and/or 20-80 μM PhTET3, as indicated according to the experiment). The laser was then unblocked, and data was recorded for 10 hours. For all runs, 30 μL of mineral oil was added to fluid reservoirs at each port of the flow cell to prevent evaporation during the run.

[4] = molecular target: T1, QP1165 after cleavage to N-terminal …; experiment: on-chip dynamic sequencing of QP1165, PS2121 run, trace Aperture=1683362
[5] = molecular target: T2, QP1165 after cleavage to N-terminal …; experiment: as above
[6] = molecular target: T1, QP1165 after cleavage to N-terminal …; experiment: on-chip dynamic sequencing of QP1165, PS1875 run, trace Aperture=340501
[7] = molecular target: T1, QP1165 after cleavage to N-terminal …; experiment: on-chip dynamic sequencing of QP1165, 500 nM PS2121 plus five recognizers, 15527 alignments
[8] = molecular target: T2, QP1165 after cleavage to N-terminal …; experiment: as above

B1: PS1223 (designed binder)
single polypeptide, two PS961 units in tandem: MPTAASATESAIEDTPAPARPEVDGRTKPKRQPRYHVVLWDDDDHTYQYVVVMLRSLFGHPPSRGYRMAKEMDTQGRVIVLTTTREHAELKRDQIHAFGRDRLLARSKGSMKASIEAEEGSAGSAAGSGEFGSAGSAAGSGEFGSAGSAAGSGEFMPTAASATESAIEDTPAPARPEVDGRTKPKRQPRYHVVLWDDDDHTYQYVVVMLRSLFGHPPSRGYRMAKEMDTQGRVIVLTTTREHAELKRDQIHAFGRDRLLARSKGSMKASIEAEE
notes: dye-labelled recognizer for N-terminal L, I, V in the six-recognizer runs; also called PS1223 (LIV)
PD of a recognition segment in an example trace [1]: 0.39 s | PD of a recognition segment in an example trace [2]: 0.53 s | PD of a recognition segment in an example trace [3]: 0.68 s | PD of a recognition segment in an example trace [4]: 0.28 s | PD of a recognition segment in an example trace [5]: 0.52 s | PD of a recognition segment in an example trace [6]: 0.36 s | IPD (interpulse duration) [7]: 16.6 s | PD (pulse duration) [7]: 0.63 s | IPD (interpulse duration) [8]: 8.64 s | PD (pulse duration) [8]: 0.7 s
